Laboratory results as given in patent US20190241669A1 (published 2019).
Residue numbers refer to the chain shown, from its start.

B1: A02_Rd4_6nM_C25 (antibody, V domains shown)
VH: EVQLLESGGGLVQPGGSLRLSCAASGFTFSSYAMNWVRQAPGKGLEWVSAISDSGGSRWYADSVKGRFTISRDNSKNTLYLQMNSLRAEDTAVYYCARYWPMTPWGQGTLVTVSS
VL: EIVLTQSPGTLSLSPGERATLSCRASQSVSSSYLAWYQQKPGQAPRLLMYDASIRATGIPDRFSGSGSGTDFTLTISRLEPEDFAVYYCQQYLDWPLTFGQGTKVEIK
notes: IgG
B2: C01_Rd4_6nM_C10 (antibody, V domains shown)
VH: B1 VH with A33P, N35S, S52G, D53G, R58L, W59P, T103D, P104S
VL: B1 VL with S32V, M49I, I54S, T57P, L93S, D94T
notes: IgG
B3: C01_Rd4_6nM_C09 (antibody, V domains shown)
VH: B1 VH with A33P, N35S, I51T, S52V, D53G, R58I, W59G, T103D, P104S
VL: B1 VL with R24A, A25C, S32T, M49I, I54S, T57P, L93S, D94A
notes: IgG
B4: COMBO_Rd4_0.6nM_C17 (antibody, V domains shown)
VH: B1 VH with A33P, N35S, S52G, D53G, R58L, W59P, T103D, P104I
VL: B1 VL with S28G, V29I, S32T, L93A, D94Y
notes: IgG
B5: C01_Rd4_6nM_C24 (antibody, V domains shown)
VH: B1 VH with A33P, N35S, S52G, D53G, R58L, W59P, T103D, P104S
VL: B1 VL with S31P, S32E, M49I, I54S, T57P, L93S, D94V
notes: IgG
B6: COMBO_Rd4_6nM_C08 (antibody, V domains shown)
VH: B1 VH with A33P, N35S, S52G, D53G, G56T, S57W, R58T, W59Y, T103D, P104S
VL: B1 VL with L93Q, D94K
notes: IgG
B7: COMBO_Rd4_0.6nM_C14 (antibody, V domains shown)
VH: B1 VH with A33P, N35S, S52G, D53G, R58L, W59P, T103D, P104I
VL: B1 VL with S31A, S32L, L93Y, D94G
notes: IgG
B8: COMBO_Rd4_0.6nM_C20 (antibody, V domains shown)
VH: B1 VH with A33P, N35S, S52G, D53G, R58L, W59P, T103D, P104S
VL: B1 VL with S31Y, S32L, L93M, D94E
notes: IgG
B9: COMBO_Rd4_0.6nM_C09 (antibody, V domains shown)
VH: B1 VH with A33P, N35S, S52G, D53G, R58L, W59P, T103D, P104I
VL: B1 VL with S32T, L93Q, D94E
notes: IgG
B10: C01_Rd4_0.6nM_C03 (antibody, V domains shown)
VH: B1 VH with A33P, N35S, S52G, D53G, R58L, W59P, T103D, P104S
VL: B1 VL with Q27C, S28D, S32T, M49I, I54S, T57P, L93M, D94R, W95S
notes: IgG
B11: C01_Rd4_0.6nM_C16 (antibody, V domains shown)
VH: B1 VH with A33P, N35S, S52G, D53G, R58L, W59P, T103D, P104S
VL: B1 VL with S32T, M49I, I54S, T57P, L93S, D94S
notes: IgG
B12: COMBO_Rd4_6nM_C10 (antibody, V domains shown)
VH: B1 VH with A33P, N35S, S52G, D53G, R58I, W59H, T103D, P104S
VL: B1 VL with L34W, A35G, L93Q, D94C
notes: IgG
B13: COMBO_Rd4_0.6nM_C05 (antibody, V domains shown)
VH: B1 VH with S52G, D53G, R58T, W59Y, T103S, P104L
VL: B1 VL with S32T, L93M, D94S
notes: IgG
B14: COMBO_Rd4_0.6nM_C11 (antibody, V domains shown)
VH: B1 VH with A33P, N35S, I51A, S52L, D53G, R58T, W59Y, T103S, P104L
VL: B1 VL with S31V, S32R, L93G, D94S, L97I
notes: IgG
B15: C01_Rd4_0.6nM_C27 (antibody, V domains shown)
VH: B1 VH with A33P, N35S, S52G, D53G, R58L, W59P, T103D, P104S
VL: B1 VL with S32T, M49I, I54S, T57P, L93S, D94R
notes: IgG
B16: COMBO_Rd4_0.6nM_C04 (antibody, V domains shown)
VH: B1 VH with A33P, N35S, I51H, S52I, D53G, R58T, W59Y, T103D, P104S
VL: B1 VL with S32T, L93Q, D94S
notes: IgG
B17: C01_Rd4_0.6nM_C09 (antibody, V domains shown)
VH: B1 VH with A33P, N35S, S52G, D53G, R58L, W59P, T103D, P104S
VL: B1 VL with S32L, Y33F, M49I, I54S, T57P, L93S, D94A
notes: IgG
B18: COMBO_Rd4_6nM_C07 (antibody, V domains shown)
VH: B1 VH with A33P, N35S, S52G, D53G, R58L, W59P, T103A, P104D
VL: B1 VL with S28P, V29I, L93Q, D94G
notes: IgG
B19: COMBO_Rd4_6nM_C09 (antibody, V domains shown)
VH: B1 VH with A33P, N35S, S52F, D53A, R58T, W59Y, T103D, P104S
VL: B1 VL with S31A, S32Q, L93Q, D94A
notes: IgG
B20: C01_Rd4_6nM_C20 (antibody, V domains shown)
VH: B1 VH with A33P, N35S, S52G, D53G, R58L, W59P, T103D, P104S
VL: B1 VL with S31P, S32L, M49I, I54S, T57P, L93S, D94A, W95F
notes: IgG
B21: C01_Rd4_6nM_C26 (antibody, V domains shown)
VH: B1 VH with A33P, N35S, S52G, D53G, R58L, W59P, T103D, P104S
VL: B1 VL with S31A, S32L, M49I, I54S, T57P, L93S, D94A
notes: IgG
B22: C01_Rd4_6nM_C04 (antibody, V domains shown)
VH: B1 VH with A33P, N35S, S52G, D53G, R58L, W59P, T103D, P104S
VL: B1 VL with R24C, A25S, S32T, M49I, I54S, T57P, L93S, D94A, W95F
notes: IgG
B23: COMBO_Rd4_0.6nM_C19 (antibody, V domains shown)
VH: B1 VH with A33P, N35S, S52G, D53G, R58L, W59P, T103D, P104S
VL: B1 VL with S31A, S32V, L93R, D94A
notes: IgG
B24: COMBO_Rd4_6nM_C02 (antibody, V domains shown)
VH: B1 VH with S57F, R58V, W59Y, T103D, P104S
VL: B1 VL with L93E, D94F
notes: IgG
B25: COMBO_Rd4_0.6nM_C30 (antibody, V domains shown)
VH: B1 VH with A33P, N35S, S52G, D53G, R58T, W59Y, T103D, P104S
VL: B1 VL with S31Y, S32M, M49I, L93K, D94S
notes: IgG
B26: COMBO_Rd4_0.6nM_C23 (antibody, V domains shown)
VH: B1 VH with A33P, N35S, I51L, S52F, D53G, R58T, W59Y, T103D, P104S
VL: B1 VL with A25P, S26R, L93Q
notes: IgG
B27: C01_Rd4_0.6nM_C06 (antibody, V domains shown)
VH: B1 VH with A33P, N35S, S52G, D53G, R58L, W59P, T103D, P104S
VL: B1 VL with Q27E, S28A, S30P, S32T, M49I, I54S, T57P, L93S, D94A, W95F
notes: IgG
B28: A02_Rd4_6nM_C26 (antibody, V domains shown)
VH: B1 VH with R58T, W59Y, T103S, P104L
VL: B1 VL with S32L, L93Q, D94V
notes: IgG
B29: C01_Rd4_6nM_C12 (antibody, V domains shown)
VH: B1 VH with A33P, N35S, S52G, D53G, S57W, R58S, W59Y, T103D, P104S
VL: B1 VL with R24W, A25L, S32T, M49I, I54S, T57P, L93S, D94E
notes: IgG; also called PC1C12
B30: COMBO_Rd4_0.6nM_C02 (antibody, V domains shown)
VH: B1 VH with A33P, N35S, S52G, D53G, R58L, W59P, T103D, P104S
VL: B1 VL with Q27I, S28A, S32T, L93M, D94V
notes: IgG

Experiments:
[1] = biological target: Human BCMA (human) (UniProt Q02223); test: SPR, IgG on chip, huBCMA analyte
[2] = biological target: T1, cynomolgus monkey BCMA (cynomolgus monkey, UniProt A0A2K5UD97 1-53); test: SPR, IgG on chip, cyBCMA analyte
T1 construct: Soluble analyte in SPR; construct not described; also called cyBCMA; Cyno BCMA
T1 sequence (A0A2K5UD97 entry or part of it): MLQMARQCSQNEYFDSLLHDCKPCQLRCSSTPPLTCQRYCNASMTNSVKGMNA

Binder	Kd [1] [nM]	koff [1] [s⁻¹]	kon [1] [M⁻¹ s⁻¹]	Kd [2] [nM]	koff [2] [s⁻¹]	kon [2] [M⁻¹ s⁻¹]
B1	0.065	0.00018	2.75e+06	0.22	0.00033	1.5e+06
B2	0.162	0.00212	1.31e+07	0.493	0.00219	4.44e+06
B3	0.811	0.0128	1.58e+07	2.33	0.00868	3.73e+06
B4	0.092	0.000801	8.68e+06	0.33	0.00101	3.06e+06
B5	0.467	0.00348	7.47e+06	0.281	0.000891	3.17e+06
B6	0.019	0.000169	8.99e+06	0.14	0.000428	3.06e+06
B7	0.038	0.000328	8.66e+06	0.185	0.000645	3.48e+06
B8	0.019	0.000146	7.65e+06	0.092	0.000284	3.09e+06
B9	0.031	0.000319	1.04e+07	0.092	0.000346	3.77e+06
B10	0.964	0.015	1.55e+07	2.53	0.0119	4.72e+06
B11	0.407	0.0063	1.55e+07	0.939	0.00464	4.95e+06
B12	0.018	9.72e-05	5.47e+06	0.105	0.00016	1.52e+06
B13	0.115	0.000497	4.32e+06	0.886	0.00172	1.94e+06
B14	0.207	0.00106	5.11e+06	1.92	0.00423	2.2e+06
B15	0.303	0.00374	1.23e+07	0.852	0.00285	3.34e+06
B16	0.015	0.000158	1.07e+07	0.039	0.000137	3.52e+06
B17	0.545	0.00825	1.51e+07	1.77	0.00936	5.28e+06
B18	0.035	0.000371	1.05e+07	0.237	0.000934	3.94e+06
B19	0.016	0.000143	8.85e+06	0.134	0.000318	2.37e+06
B20	0.459	0.00276	6.02e+06	1.74	0.00625	3.6e+06
B21	0.09	0.00136	1.5e+07	0.419	0.00199	4.75e+06
B22	2.13	0.0497	2.33e+07	5.16	0.0327	6.34e+06
B23	0.02	0.000155	7.86e+06	0.336	0.000979	2.92e+06
B24	0.422	0.000443	1.05e+06	1.71	0.00136	795000
B25	0.065	0.000282	4.35e+06	0.481	0.000808	1.68e+06
B26	0.028	0.00021	7.39e+06	0.189	0.000531	2.81e+06
B27	0.847	0.0154	1.82e+07	1.95	0.0121	6.22e+06
B28	0.033	0.000139	4.26e+06	0.203	0.000448	2.21e+06
B29	0.535	0.00649	1.21e+07	0.82	0.0037	4.51e+06
B30	0.022	0.000185	8.57e+06	0.164	0.000494	3.01e+06
